These results are taken from article PMC10076392, “Structure of the heterotrimeric membrane protein complex FtsB-FtsL-FtsQ of the bacterial divisome” (Nature Communications, 2023).

The assay concerns the target T1, FtsW-FtsI complex, His-tagged (E. coli strain K12, UniProt P0ABG4 1-414; P0AD68 1-577).
T1 construct: FtsW, transglycosylase, E. coli strain K12 (ATCC10798D-5), amplified from the genome with primers W-F and W-R; also called FtsWI; His-tagged FtsWI; source: E. coli C43, co-expressed from pETduet-FtsWI, purified (Ni-NTA, Superdex-200) in DDM
T1 sequence (looked up) 1: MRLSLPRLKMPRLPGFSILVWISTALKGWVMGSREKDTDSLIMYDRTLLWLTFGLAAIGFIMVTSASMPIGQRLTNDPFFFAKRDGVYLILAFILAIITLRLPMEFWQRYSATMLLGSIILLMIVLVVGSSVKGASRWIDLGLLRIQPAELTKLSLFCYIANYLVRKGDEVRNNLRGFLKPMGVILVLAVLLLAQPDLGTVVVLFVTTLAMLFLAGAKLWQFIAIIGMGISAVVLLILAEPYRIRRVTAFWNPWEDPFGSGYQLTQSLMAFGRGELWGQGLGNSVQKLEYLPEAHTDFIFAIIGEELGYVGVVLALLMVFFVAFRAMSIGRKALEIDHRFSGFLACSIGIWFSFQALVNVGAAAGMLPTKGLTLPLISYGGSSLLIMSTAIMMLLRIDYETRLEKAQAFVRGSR
T1 sequence (looked up) 2: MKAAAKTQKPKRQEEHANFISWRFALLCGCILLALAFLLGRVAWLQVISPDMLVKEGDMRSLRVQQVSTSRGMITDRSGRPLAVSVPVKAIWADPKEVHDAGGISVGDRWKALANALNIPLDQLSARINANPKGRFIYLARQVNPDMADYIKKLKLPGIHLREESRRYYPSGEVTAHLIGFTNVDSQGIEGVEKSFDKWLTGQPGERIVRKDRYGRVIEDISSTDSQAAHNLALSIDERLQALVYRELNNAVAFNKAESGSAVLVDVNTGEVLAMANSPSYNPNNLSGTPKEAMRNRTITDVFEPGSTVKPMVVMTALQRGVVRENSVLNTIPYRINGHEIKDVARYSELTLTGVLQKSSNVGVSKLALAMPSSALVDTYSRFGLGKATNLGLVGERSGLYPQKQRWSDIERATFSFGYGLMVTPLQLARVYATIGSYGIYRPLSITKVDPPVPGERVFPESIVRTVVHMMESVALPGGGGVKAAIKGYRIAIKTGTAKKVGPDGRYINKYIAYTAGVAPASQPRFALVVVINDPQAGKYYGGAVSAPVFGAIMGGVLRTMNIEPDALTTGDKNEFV
The assay is described as follows: BLI; His-tagged protein loaded at 50 μg/ml on HIS1K (Anti-Penta-HIS) biosensors; analyte in threefold dilutions 0.016-4 µM; 200 mM NaCl, 20 mM HEPES pH7.5, 0.1% DDM; 240 sec association and dissociation; Octet HTX. The conditions noted are these: both partners purified. On the technique in general: BLI is a label-free optical method that tracks binding on a fibre tip over time.

B1: PBP1b (aa58-804) (enzyme, E. coli strain K12, UniProt P02919 58-804, looked up)
chain: KPRGKRGWLWLLLKLAIVFAVLIAIYGVYLDQKIRSRIDGKVWQLPAAVYGRMVNLEPDMTISKNEMVKLLEATQYRQVSKMTRPGEFTVQANSIEMIRRPFDFPDSKEGQVRARLTFDGDHLATIVNMENNRQFGFFRLDPRLITMISSPNGEQRLFVPRSGFPDLLVDTLLATEDRHFYEHDGISLYSIGRAVLANLTAGRTVQGASTLTQQLVKNLFLSSERSYWRKANEAYMALIMDARYSKDRILELYMNEVYLGQSGDNEIRGFPLASLYYFGRPVEELSLDQQALLVGMVKGASIYNPWRNPKLALERRNLVLRLLQQQQIIDQELYDMLSARPLGVQPRGGVISPQPAFMQLVRQELQAKLGDKVKDLSGVKIFTTFDSVAQDAAEKAAVEGIPALKKQRKLSDLETAIVVVDRFSGEVRAMVGGSEPQFAGYNRAMQARRSIGSLAKPATYLTALSQPKIYRLNTWIADAPIALRQPNGQVWSPQNDDRRYSESGRVMLVDALTRSMNVPTVNLGMALGLPAVTETWIKLGVPKDQLHPVPAMLLGALNLTPIEVAQAFQTIASGGNRAPLSALRSVIAEDGKVLYQSFPQAERAVPAQAAYLTLWTMQQVVQRGTGRQLGAKYPNLHLAGKTGTTNNNVDTWFAGIDGSTVTITWVGRDNNQPTKLYGASGAMSIYQRYLANQTPTPLNLVPPEDIADMGVDYDGNFVCSGGMRILPVWTSDPQSLCQQSEMQQQPS
notes: PBP1b, bi-functional peptidoglycan synthase, E. coli strain K12 (ATCC10798D-5), residues 58-804; Analyte in BLI; source: E. coli C43, from pET15b-PBP1b, purified (Ni-NTA, Superdex-200) in DDM
For B1, the binding result was “binds”.
